± gives the uncertainty stated by the source.
Assay: protein stability index of a GFP-peptide fusion (yeast GPS) (PSI 1-4); higher = more stable; sorted into four equal gates, so the index is relative within each strain
How it was run: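 Tiled 17-residue peptides from yeast proteins were fused downstream of GFP on a plasmid that also expresses Cherry, and the pooled library was carried in yeast. Mid-log cultures grown in leucine-free medium were sorted into four equal gates by GFP/Cherry fluorescence ratio. Plasmids from each gate were PCR-amplified and Illumina-sequenced, and reads were assigned to strains by barcodes. Each peptide's protein stability index is the sum, over gates, of the gate's read frequency multiplied by its gate number.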

Sequence | protein stability index (doa10∆) | protein stability index (pdr5∆) | protein stability index (san1∆) | protein stability index (ubr1∆)
NGNTSSKTVVTLSEPVQ [FAS1] | 2.91 ± 0.072 | 3.14 ± 0.066 | 2.96 ± 0.059 | 2.96 ± 0.055
IVTALLESDVNIALVSK [SRP54] | 3.22 ± 0.18 | 3.19 ± 0.088 | 3.24 ± 0.12 | 3.35 ± 0.12
DLALKMGVPIYGIVAMA [FAS2] | 1.85 ± 0.27 | 1.17 ± 0.093 | 1.36 ± 0.28 | 1.18 ± 0.078
SEINEILARNDEEMAVL [SNF2] | 2.88 ± 0.18 | 2.64 ± 0.21 | 3 ± 0.17 | 3.16 ± 0.099
SAEEQLRKIDMLQKKLV [SRB7] | 2.64 ± 0.09 | 2.58 ± 0.065 | 1.88 ± 0.097 | 2.62 ± 0.043
NDRESVLTNIEVYRTSL [SMC3] | 2.94 ± 0.13 | 3.21 ± 0.15 | 3.05 ± 0.12 | 2.97 ± 0.081
QQTEHETEIKDLTQLLE [SMC4] | 3.44 ± 0.083 | 3.26 ± 0.048 | 3.31 ± 0.045 | 3.34 ± 0.046
RYVNLLGVTYSSPTLAT [PRE4] | 1.12 ± 0.11 | 1.35 ± 0.13 | 1.47 ± 0.17 | 1.1 ± 0.12
DELILEAKERYTDRDQD [NNF1] |  | 3.68 ± 0.27 | 3.58 ± 0.1 | 3.52 ± 0.2
LQGDLTFTKKCLENARS [SIR4] | 3.23 ± 0.064 | 3.11 ± 0.059 | 3.05 ± 0.047 | 2.96 ± 0.041
RATPATLTELKDALSNS [SRB2] | 3.11 ± 0.12 | 3.11 ± 0.11 | 3.15 ± 0.12 | 3.42 ± 0.1
IVPSMTHLEIEPFTILG [RET1] | 1.49 ± 0.037 | 2.05 ± 0.055 | 2.29 ± 0.1 | 2.27 ± 0.035
QRITIPNVCNMKQYRDF [PRP28] | 2.85 ± 0.18 | 2.55 ± 0.092 | 2.07 ± 0.11 | 2.58 ± 0.11
SRDKTIKVWTIKGQCLA [ASC1] | 1.63 ± 0.078 | 2.04 ± 0.074 | 2.12 ± 0.11 | 1.83 ± 0.06
QLFRTNKVQIMIATNVA [PRP28] | 1.5 ± 0.055 | 1.43 ± 0.064 | 1.48 ± 0.081 | 1.7 ± 0.036
NEQAARAANQGALPPDL [CYT1] | 3.18 ± 0.058 | 3.32 ± 0.049 | 2.94 ± 0.053 | 3.03 ± 0.042
AVYETLISRMIFIATQL [BRR2] | 1.96 ± 0.072 | 1.55 ± 0.058 | 1.29 ± 0.096 | 1.62 ± 0.041
IFLQQFLQELLKKVQQQ [SWI1] | 2.94 ± 0.098 | 2.37 ± 0.12 | 2.56 ± 0.11 | 2.5 ± 0.13
DAIAVTKGHGFEGVTHR [RPL3] | 3.06 ± 0.11 | 3.19 ± 0.11 | 3.37 ± 0.1 | 3.36 ± 0.077
KRQLIKERNQKFQLQNQ [YIL149C/MLP2] | 2.75 ± 0.096 | 3.17 ± 0.11 | 2.99 ± 0.059 | 2.78 ± 0.05
IDRKVEFSLPDLEGRAN [RPT1] | 3.15 ± 0.097 | 3.37 ± 0.1 | 3.08 ± 0.17 | 3.18 ± 0.1
RSWNEPSKSQTNFKEEI [YML103C/NUP188] | 2.9 ± 0.12 | 2.98 ± 0.13 | 3.17 ± 0.12 | 3.11 ± 0.075
QRRVLLSAPLSKELRAQ [RPL26A] | 2.65 ± 0.073 | 2.43 ± 0.078 | 2.62 ± 0.08 | 2.39 ± 0.063
ILYSFKLSGKLLKEEKI [YML103C/NUP188] | 1.4 ± 0.059 | 1.6 ± 0.063 | 2.11 ± 0.1 | 2.49 ± 0.1
LSFIQVRIDLGTIDKLQ [RPO31] | 1.37 ± 0.056 | 1.71 ± 0.056 | 2.06 ± 0.077 | 2.67 ± 0.047

Reference: the supplement of paper PMC9732359
